In the supplement of paper PMC10567573:

B1: RAB11A (parent)
chain: AVPTDEARAFAEKNGLSFIETSAL
B2: FBXO3 (parent)
chain: AGGFQQRQGLKYCLPLTFCIHTGL

Variants of: B1
Assay: protein stability index of a GFP-peptide fusion (GPS, HEK-293T) (PSI 1-6); higher = more stable
Details: c terminus: a fixed tail appended
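Also: lentivirally expressed fusions sorted by FACS into six bins by GFP to DsRed ratio, PSI derived from sequencing read proportions per bin multiplied by bin number.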

Protein stability index, by site and new letter:
L24: M 3.08, W 2.72, I 2.34
T21: H 2.67, A 2.49, M 2.64, G 1.78, C 2.87, Q 3.75, L 2.46, E 4.34, W 2.39
E20: G 2.02, M 1.81
D5: H 2.33, T 2.52, M 1.72, C 1.89, E 2.35, V 2.05, W 1.49, L 2.41
S17: F 2.62, N 1.56, L 2.7, E 4.3, K 3.23
R8: L 2.16, S 2.68, T 2.84, C 2.32, Y 1.99
P3: L 2.59, M 2.47, S 2.57, A 2.61
A9: G 2.57, V 2.45, F 2.1, S 2.35, L 2.45
S22: Y 2.08, E 4.01, D 3.84, I 1.76, G 2.91, W 1.6, K 3.44
L16: P 4.08, D 4.87, S 4.35, V 3.73, H 4.3, Y 3.14
N14: K 2.46, G 2.15, T 2.39, L 2.03
I19: H 2.46, E 4.24, Q 3.6, K 4.12, F 3.4
K13: R 2.52, S 2.9, I 2.09, A 2.57, Q 2.67, M 2.12, V 2.23
V2: P 2.98, L 2.48, R 2.56, M 2.67, K 2.11, F 2.35
E6: R 2.25, V 1.83, W 2.07, C 2.13, S 2.09
A11: N 2.5, L 2.32, T 2.31, F 1.94, V 2.65, M 2.24, C 2.32, P 2.33
A23: G 3.49, R 2.04, K 2.42, F 1.66, I 1.65
F18: D 5.03, A 4.62, G 4.35, I 3.6, W 3.46, Y 2.62, P 4.68
G15: P 2.2, H 2.15, M 2.02
E12: Q 1.77, A 2.07, F 1.69, K 1.81
A7: R 2.46, W 2.09, D 2.99, H 2.43, F 2.48
A1: F 3.39, V 2.49
T4: S 2.23, Q 2.84, W 1.93, L 2.79, P 2.43, D 2.84
F10: N 2.9, L 2.33, H 2.54, W 2.36

Variants of: B2
Assay: as above
Details: c terminus: a fixed tail appended

Protein stability index, by site and new letter:
C13: N 2.93, Q 3, W 3.43, A 2.85, Y 2.22, F 2.94, E 3.1, V 3.35, M 2.51, D 2.67, L 1.69, G 2.48, T 3.22, P 3.01, I 2.94, H 2.57
Y12: T 2.2, N 1.86, K 2.49, L 3.06, M 2.59, I 2.84, Q 3.79, S 3.56, P 1.68, V 2.36, R 3.39, W 2.43
L16: C 1.66, R 2.91, H 2.58, P 2.75, I 3.02, Q 1.52, E 2.03, F 3.56, K 2.95, T 2.53, Y 2.33, M 4.03, A 2.44, N 1.51, D 1.68, W 2.89, S 2.17
G23: I 1.85, V 3.1, F 3.1, D 2.58, W 2.97, N 2.97, Q 3.06, R 3.05, A 3.52, E 2.4, C 3.16, M 2.31, K 2.81, P 3.02, L 2.67
T22: V 3.1, N 3.55, C 2.09, Y 3.75, R 2.2, D 1.27, M 2.18, P 3.88, A 1.86, W 2.86, L 2.59, K 2.49, S 3.29, Q 2.23, H 2.17, E 2.24
P15: Q 2.27, F 2.95, S 2.81, A 2.77, R 2.51, I 3.05, C 2.57, G 2.33, L 2.01, W 1.61, K 1.13, M 2.93
L24: P 1.88, Q 1.96, E 3.16, K 1.66, S 2.14, F 2.33, N 2.3, T 2.42, M 2.99, I 2.69, V 3.48, D 2.42, A 2.48, C 2.15, W 2.7, H 2.7, Y 2.45, G 2.74, R 2.73
F18: A 2.38, V 4.06, H 1.77, R 1.05, D 1.67, S 1.4, P 1.68, Q 2.47, E 2.36, N 1.95, L 3.1, G 1.1, T 1.19, I 2.93, K 1.89, Y 2.71, M 2.41
I20: L 3.23, S 2.43, D 2.93, G 2.69, K 1.6, F 2.34, E 2.95, V 2.78, A 1.89, M 2.73, N 2.33, Q 2.62, C 3.77, T 2.56, R 3.02, P 2.11, W 1.25
H21: S 2.72, V 3.83, F 3.32, Y 3.41, G 2.73, Q 2.73, E 1.98, L 2.46, K 2.03, T 2.59, C 3.66, P 2.76, W 2.15, I 2.36, M 1.72, D 2.99
C19: A 3.9, E 3.11, I 1.6, Y 2.67, P 1.87, K 2.21, Q 1.74, R 2.8, D 1.46, N 2.04, T 3.13, L 2.86, S 2.64, M 2.71, G 1.97, H 2.66, F 2.44, V 2.83
L14: T 1.84, P 1.56, E 1.97, K 2.73, Y 2.16, H 1.75, R 2.88, C 3.66, M 2.42, I 4.28, D 1.78, V 4.27, G 3.59, N 2.34, A 2.7, Q 2.57, S 2.67
T17: H 3.39, Y 2.69, W 3.79, C 2.73, M 3.43, Q 2.4, R 2.87, N 1.66, P 2.59, F 1.67, K 2.75, I 2.65, D 1.55, G 2.31, L 2.11, V 3.17, E 4.01
